Data on 135 substances can be found in the supplement of paper PMC12042874.

± gives the uncertainty stated by the source.

A short description of this data set: amyloid nucleation score (Sup35N fusion, yeast selection) (log enrichment); library NNK3; higher = more nucleation; inactive = no reads after selection. The gist of the method: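 DiMSum was used to calculate nucleation scores as log enrichment of output over input reads, centred on the mode score of non-aggregating sequences. Sequences with fewer than 100 input reads were not scored. Input and output came from Illumina sequencing of plasmid inserts in psi-negative yeast expressing peptides of 20 random codons fused to Sup35N, induced 24 hours with 100 μM copper sulfate and then grown 7 days at 30°C on medium lacking adenine and uracil.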

MYWLHYKVHNYNSCVI: the amyloid nucleation score entry was “inactive”.

Take GREFRICNSFVWVSVFIFCG: the amyloid nucleation score entry was “inactive”.

Take VYVMRGSVIWLCRMSMGCCA: the amyloid nucleation score result was “inactive”.

WNVWVLPIFIAFGLEPPRLE came in with an amyloid nucleation score of 2.62 ± 0.059.

With AYMRHFF, the amyloid nucleation score result is “inactive”.

As for LLWYKLSELR, the amyloid nucleation score entry is “inactive”.

For the substance IFLGYRNYDYFSFTVLVE, the amyloid nucleation score result is “inactive”.

Consider TAIRIMMRV, for which the amyloid nucleation score entry is “inactive”.

In turn, VNEIF registered an amyloid nucleation score of 0.432 ± 0.23.

For MLPVIHIGVVSPRTFEQSSC, the amyloid nucleation score result is “inactive”.

Consider GPLRVPVMMGCWRRIDRMPW, for which the amyloid nucleation score result is “inactive”.

As to YAFISWNS, the amyloid nucleation score result was “inactive”.

In the case of FLNSCQNMQVPSGKFNSSKV, the amyloid nucleation score was -0.122 ± 0.82.

WVESESQETHHIAM returned an amyloid nucleation score of -0.113 ± 1.

Turning to YGGNSIY, the amyloid nucleation score result is “inactive”.

In turn, IIVTKGAMR displayed an amyloid nucleation score of -0.87 ± 1.7.

Regarding EDSMRYCH, the amyloid nucleation score result was “inactive”.

On to CFCLSRL, for which the amyloid nucleation score entry was “inactive”.

On to DMCNYAFDGLCIYNYVNVVG, for which the amyloid nucleation score entry is “inactive”.

Take RPAGLWVTMWIYPVLRSTYV: the amyloid nucleation score result was “inactive”.

Consider LRCYDILLDA, for which the amyloid nucleation score result was “inactive”.

Take PELRRLTMESYIRNFWSVLS: the amyloid nucleation score entry was “inactive”.

As to RCLLYTAY, the amyloid nucleation score result is “inactive”.

The substance VWVRLTFKTSY had an amyloid nucleation score of 0.678 ± 0.16.

Take TSGHVVTMEHRLLYVPTIGF: the amyloid nucleation score result is “inactive”.

Consider FCTGWSNGLVNHVDYKKGRN, for which the amyloid nucleation score entry was “inactive”.

On to CFSFYVGCGRMQEPPRLGAG, for which the amyloid nucleation score amounted to 0.785 ± 0.18.

Turning to AGCIGFNVFEH, the amyloid nucleation score result was “inactive”.

Regarding GGFVLC, the amyloid nucleation score result was “inactive”.

For the substance HLWTFEITSTGYL, the amyloid nucleation score result was “inactive”.

For PNRQTLFSSIRF, the amyloid nucleation score came to 0.092 ± 0.56.

FHYCCYITAAQYYDACCVVP: the amyloid nucleation score entry is “inactive”.

As to FPLESG, the amyloid nucleation score result was “inactive”.

For the substance SLLRDVKG, the amyloid nucleation score is -0.487 ± 1.4.

On to SDKPSMLKMIHVMR, for which the amyloid nucleation score entry was “inactive”.

On to FPVYQCWLSN, for which the amyloid nucleation score entry was “inactive”.

On to DWIKFHVTDW, for which the amyloid nucleation score result is “inactive”.

For CWGST, the amyloid nucleation score entry is “inactive”.

As to LFYCSNCGKGIIQLRVGLYP, the amyloid nucleation score entry was “inactive”.

The substance CHDLLHVVIEIPVCFLCTKG displayed an amyloid nucleation score of 0.807 ± 0.18.

Take IDALIYG: the amyloid nucleation score result is “inactive”.

YYTSYIAGNLAFNTSKFRKM displayed an amyloid nucleation score of -0.347 ± 0.7.

Consider VKTYFTSLRFVISMGWLNNQ, for which the amyloid nucleation score result is “inactive”.

In turn, TSTHCIIWLGRSDRRREMQL yielded an amyloid nucleation score of -0.752 ± 1.9.

Turning to VMLRMDARQWHSLATVTVVP, the amyloid nucleation score result is “inactive”.

In turn, YFFIPLMF had an amyloid nucleation score of 0.725 ± 0.14.

In the case of AVCEMKIHCYITVPDPSRPR, the amyloid nucleation score result is “inactive”.

As to YASVRVGMPSCDECGMFCLE, the amyloid nucleation score entry is “inactive”.

FSGNRSGESSVRWNQYELGV: the amyloid nucleation score result was “inactive”.

Regarding SSARYPAGLIVLHWLGCLKA, the amyloid nucleation score result was “inactive”.

Take RCGEDNLQGSLSTSTVGNLV: the amyloid nucleation score result was “inactive”.

On to HRYVKALRFF, for which the amyloid nucleation score entry is “inactive”.

As for NLCVMPRTTGPLS, the amyloid nucleation score entry is “inactive”.

With RMNCQFTGMSTFRPPLLGAR, the amyloid nucleation score entry was “inactive”.

For EGNYAYAVVSHAHFEV, the amyloid nucleation score result is “inactive”.

On to CSGLSDLSVTLNCYVNCIFL, for which the amyloid nucleation score is 2.48 ± 0.077.

SLASYLFTVTATNRYCERGA gave an amyloid nucleation score of 0.996 ± 0.12.

Consider KYFRNIYWHISRRIWAKAPG, for which the amyloid nucleation score entry was “inactive”.

For YISSVQGCPMEGGLPKSSAS, the amyloid nucleation score entry is “inactive”.

Regarding NLPHIYRDHRRFWVGFSIMT, the amyloid nucleation score was found to be 1.12 ± 0.17.

Turning to SSSTGAFGDSGGR, the amyloid nucleation score result was “inactive”.

Regarding RVIIRKCDYFG, the amyloid nucleation score result is “inactive”.

On to FSLFS, for which the amyloid nucleation score entry was “inactive”.

As to LLYSLWCEMMYPSKGARM, the amyloid nucleation score entry was “inactive”.

Substance YMDLSILGAMVSVSFNMG returned an amyloid nucleation score of 2.56 ± 0.063.

Take NTPNCYFVLRRVILMRLKLS: the amyloid nucleation score entry is “inactive”.

FVYSCNC: the amyloid nucleation score is 2.34 ± 0.08.

Consider CDLWIHWS, for which the amyloid nucleation score entry is “inactive”.

LCVFL had an amyloid nucleation score of 1.1 ± 0.15.

On to IIGSCGGFVSLACSGTLDGV, for which the amyloid nucleation score stood at 0.538 ± 0.2.

On to MRVVECLMRSLCRLDVRVHC, for which the amyloid nucleation score entry is “inactive”.

As for DSGCLAMF, the amyloid nucleation score entry was “inactive”.

Turning to LCNFKDSADNWVSVGGNVGE, the amyloid nucleation score result was “inactive”.

On to YDCMSRVLAMARATMCRLGD, for which the amyloid nucleation score result was “inactive”.

For the substance QRKTYRTVEHGMHSSSNL, the amyloid nucleation score result was “inactive”.

As for GLDHSKGYLQLS, the amyloid nucleation score entry was “inactive”.

Regarding CLSSSINMTMVYCCNSLMFG, the amyloid nucleation score stood at 2.13 ± 0.069.

For the substance LRVKNDVHGLLELGSVDVSI, the amyloid nucleation score result was “inactive”.

For DLRVPLNTFRNYHVSRELVR, the amyloid nucleation score result is “inactive”.

For the substance FSAGGVPYYICYSCIAKFRL, the amyloid nucleation score entry was “inactive”.

Turning to IQMSNLNNTSLQVRRPRPCV, the amyloid nucleation score entry was “inactive”.

With NRRIMVSSFRKVFLSGYGWF, the amyloid nucleation score result was “inactive”.

With YVHFLFQTHIRCMVRFSLCW, the amyloid nucleation score result is “inactive”.

On to DIFVDN, for which the amyloid nucleation score entry was “inactive”.

Turning to SCNSRFMI, the amyloid nucleation score was -0.082 ± 0.66.

In the case of GRLCELITSMY, the amyloid nucleation score entry is “inactive”.

Regarding TTFNRFVYPYGERYLG, the amyloid nucleation score result is “inactive”.

Turning to FIQYEHNLPGTARGKCIQC, the amyloid nucleation score entry is “inactive”.

For IRYLYLFVYSSRLSHIPGKN, the amyloid nucleation score entry is “inactive”.

As for PFHGCPTHDCFNAGILALTV, the amyloid nucleation score entry is “inactive”.

ASHHVDSTYDTYYWQHKAKK: the amyloid nucleation score entry was “inactive”.

Take QQGFSVLERCISEV: the amyloid nucleation score result was “inactive”.

On to YPMTQALVTSWVLHCTAMKM, for which the amyloid nucleation score result was “inactive”.

For IDDEIANSSFQVWLKGGFLV, the amyloid nucleation score entry is “inactive”.

Regarding ISCMVFANHR, the amyloid nucleation score result was “inactive”.

In the case of SRSSWGPSAIPYYKKLFMLF, the amyloid nucleation score entry is “inactive”.

Take KRFMDLTHIESSRAKVYRVT: the amyloid nucleation score result is “inactive”.

In the case of QKIPRDDEPMANQDRLSKIS, the amyloid nucleation score result was “inactive”.

On to QSSMLHL, for which the amyloid nucleation score result was “inactive”.

For the substance SMQGDRWFLVL, the amyloid nucleation score entry was “inactive”.

For RYRNIYC, the amyloid nucleation score entry is “inactive”.

With GTRIGEIRLASFGSVRGFNV, the amyloid nucleation score entry is “inactive”.

With LLAMRRIDWCSTPVTLILCR, the amyloid nucleation score entry was “inactive”.

Turning to WLESHGDHGFNEKDSWWPYF, the amyloid nucleation score result was “inactive”.

RDMPLMGVYKIPVDAFYSVS: the amyloid nucleation score entry was “inactive”.

On to CINIGVMDEWGVAVTLLVKN, for which the amyloid nucleation score result is “inactive”.

GLFFW: the amyloid nucleation score was -0.669 ± 0.74.

As for GRKDAKR, the amyloid nucleation score result is “inactive”.

As to GCLIAGYKKRDANKFCGVAL, the amyloid nucleation score entry is “inactive”.

On to LNATKSDCHSLLI, for which the amyloid nucleation score entry is “inactive”.

Consider KGSLGVPWLLVNSGLINGC, for which the amyloid nucleation score result is “inactive”.

In the case of SLLSEMSTR, the amyloid nucleation score result was “inactive”.

Regarding KWFRHFHI, the amyloid nucleation score entry was “inactive”.

In the case of RNCYCWASVDI, the amyloid nucleation score result is “inactive”.

In the case of VFVVLLALSYGSDNTV, the amyloid nucleation score entry is “inactive”.

As for VTLQSSSQVSSCVNNSR, the amyloid nucleation score entry was “inactive”.

As to VYRRGDIATLLNDI, the amyloid nucleation score entry is “inactive”.

AYSVSRSALRSEANRIGSR: the amyloid nucleation score entry was “inactive”.

On to FYYANMTRSKILAPFSRPSR, for which the amyloid nucleation score result was “inactive”.

As to PIRSNVAMIPDD, the amyloid nucleation score entry is “inactive”.

For the substance SDIIM, the amyloid nucleation score entry was “inactive”.

LQAHCSNFWVFYMAFGPIDF returned an amyloid nucleation score of 1.76 ± 0.095.

In turn, CFYSNQASQVLLLYHP showed an amyloid nucleation score of 0.771 ± 0.2.

In the case of FNKLVWNHLSGCV, the amyloid nucleation score entry is “inactive”.

On to AEARTPIECVC, for which the amyloid nucleation score result is “inactive”.

As for MYFILASSISILFGIKVFPM, the amyloid nucleation score entry is “inactive”.

For YIIICLGMWCYSNVGSKTGT, the amyloid nucleation score entry was “inactive”.

As for WPGNWSQFNQCWCRETTCYV, the amyloid nucleation score result is “inactive”.

Take SCFTEIEWS: the amyloid nucleation score result was “inactive”.

As for ERLFRFENEDLVIFIYCSIL, the amyloid nucleation score result is “inactive”.

Regarding ETFVGLEVNWNSCNCFIVQE, the amyloid nucleation score was 1.87 ± 0.076.

In turn, IIFIF came in with an amyloid nucleation score of 1.3 ± 0.14.

In turn, FVSGYVVALCYPWQGCPGVC yielded an amyloid nucleation score of 1.97 ± 0.093.

As to DNVNYPPVSYQTAG, the amyloid nucleation score entry was “inactive”.

As for FLYSVL, the amyloid nucleation score result is “inactive”.
